# According to patent publication US20190264194A1 (published 2019):
# No end group written: not given here.
# Legend:
# human C-reactive protein [1] = molecular target: T1, human C-reactive protein (human, UniProt P02741 19-224); assay: selection from the E. coli display library
# T1 construct: Biotinylated or labelled with Alexa Fluor 488; also called CRP; C-RP
# T1 sequence (looked up): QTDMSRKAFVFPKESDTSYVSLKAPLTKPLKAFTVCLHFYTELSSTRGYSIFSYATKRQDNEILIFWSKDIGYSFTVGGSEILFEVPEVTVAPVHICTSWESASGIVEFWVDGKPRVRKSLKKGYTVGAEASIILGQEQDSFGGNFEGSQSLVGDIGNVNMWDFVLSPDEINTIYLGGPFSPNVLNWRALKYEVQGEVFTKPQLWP
# Procedure: (§1) The library was first depleted of streptavidin binding peptides by incubation with streptavidin coated microbeads, e.g., from Qiagen, Inc. (Valencia, Calif.). Then the library was incubated with biotinylated human C-reactive protein at 10 nM final concentration, and two rounds of magnetic selection were used to enrich CRP binding peptides. […] Equilibrium binding affinities were measured in the whole cell format, by determining cell fluorescence at various concentrations of target CRP. See e.g. FIG. 17.
# human C-reactive protein [2] = molecular target: T1, human C-reactive protein; assay: apparent whole-cell KD, flow cytometry with CRP-Alexa Fluor 488
# Procedure: (§2) To obtain equilibrium binding curves, cells were labeled over a range of concentrations, e.g., about 0.1 to about 200 nM, of fluorescently conjugated target proteins (streptavidin-phycoerythrin or CRP-Alexa Fluor® 488) and analyzed by flow cytometry, as above. The corresponding mean fluorescence versus concentration data were fit to a monovalent binding isotherm to obtain the apparent KD. Dissociation rates of streptavidin-binding clones were measured in the presence of about 1 to about 2 μM biotin. Cells were labeled with 50 nM streptavidin-phycoerythrin for 30 minutes at room temperature. The cells were then pelleted, resuspended in PBS with biotin, and immediately analyzed by flow cytometry. Fluorescence data were collected continuously for about five minutes. The dissociation rate constants were then determined as described previously. See Daugherty, P. S., et al. (1998) Protein Eng. 11(9):825-832, which is herein incorporated by reference.
# streptavidin [3] = molecular target: T2, streptavidin (UniProt P22629 37-163, limits assumed); assay: selection from the X4CX3CX4 library displayed in loop 2 of OmpX
# T2 construct: Used as phycoerythrin conjugate or on coated beads; also called SA; streptavidin-phycoerythrin
# streptavidin [4] = molecular target: T2, streptavidin; assay: whole-cell dissociation by flow cytometry, 1-2 uM biotin as competitor
# Procedure: The apparent binding affinities of a subset of the selected peptides were determined using flow cytometric analysis. […] See Daugherty, P. S., et al. (1998) Protein Eng. 11(9):825-832, which is herein incorporated by reference. […] See Daugherty, P. S., et al. (1998) Protein Eng. 11(9):825-832; and Feldhaus, M. J., et al. (2003) Nat. Biotechnol. 21(2): 163-170, which are herein incorporated by reference. […] Apparent dissociation rate constants (kdiss) were determined for streptavidin, using about 1 to about 2 μM biotin as a competitor to prevent re-binding.
# as §2
# human serum albumin = molecular target: T3, human serum albumin (human, UniProt P02768 25-609); assay: clones isolated by MACS and FACS from the E. coli OmpA loop 1 15-mer library
# T3 construct: Biotinylated or FITC-conjugated; also called HSA
# streptavidin [5] = molecular target: T2, streptavidin; assay: selection from the XCCX4CX7CX library displayed in loop 2 of OmpX
# human C-reactive protein [6] = molecular target: T1, human C-reactive protein; assay: clones isolated by MACS and FACS from the E. coli OmpA loop 1 15-mer library
# streptavidin [7] = molecular target: T2, streptavidin; assay: apparent whole-cell KD, flow cytometry with streptavidin-phycoerythrin
# Procedure: as §2
# human C-reactive protein [8] = molecular target: T1, human C-reactive protein; assay: equilibrium dissociation constant of a selected displayed peptide, whole-cell flow cytometry at various CRP concentrations
# Procedure: as §1
# as §2, with “11(9):825-832, which is herein incorporated by reference.” left out
binder,measurement,setting,value
WTKLKNSRGFELQLD [SEQ ID NO 254],binding result,human C-reactive protein [1],binds
MIFNSRGFLSLMSSG (Insert only) [CRP-6],Kd,human C-reactive protein [2],8 nM
PTLICMNVCFYDQ [SEQ ID NO 281],binding result,streptavidin [3],binds
YWVCMNVCMYYTARQ (Insert only) [SA-5],koff,streptavidin [4],~0.001 s⁻¹
TYSWCANVCMHYS [SEQ ID NO 283],binding result,streptavidin [3],binds
RHLYCWTWRWCHFKD (Insert only) [HSA-2],binding result,human serum albumin,binds
FPIYNQRGFITLASP (Insert only) [CRP-2],Kd,human C-reactive protein [2],3 nM
LCCHPQNCVSFRHVECR [SEQ ID NO 274],binding result,streptavidin [5],binds
TDFLSYYRVYRTPLQ [SEQ ID NO 248],binding result,human C-reactive protein [1],binds
SKWICQNVCYPGL [SEQ ID NO 279],binding result,streptavidin [3],binds
ICCHPQVCAWNRVFLCK [SEQ ID NO 269],binding result,streptavidin [5],binds
SHWFCVNVCFRIQ [SEQ ID NO 282],binding result,streptavidin [3],binds
VTSLCMNVCYSLTTY (Insert only) [SA-4],koff,streptavidin [4],~0.001 s⁻¹
LCCHPQVCASAGYYACY [SEQ ID NO 273],binding result,streptavidin [5],binds
WCCHPQVCHRAMVRNCI [SEQ ID NO 271],binding result,streptavidin [5],binds
QSLVCQNVCWMRE [SEQ ID NO 276],binding result,streptavidin [3],binds
TDFLSYYRVYRTPLQ (Insert only) [CRP-11],binding result,human C-reactive protein [6],binds
TTCKYYLSCRWRKDL [SEQ ID NO 246],binding result,human C-reactive protein [1],binds
LPVWCVMHVCLTSSR (Insert only) [SA-6],koff,streptavidin [4],~0.001 s⁻¹
SITICWYTCMVQKTA (Insert only) [SA-10],koff,streptavidin [4],~0.01 s⁻¹
ACCHPQVCVMALPYHCL [SEQ ID NO 272],binding result,streptavidin [5],binds
ICSYVMYTTCFLRVY (Insert only) [SA-2],koff,streptavidin [4],~0.001 s⁻¹
same,Kd,streptavidin [7],8 nM
NPFCSWYRWRNWCTK (Insert only) [HSA-1],binding result,human serum albumin,binds
"EWACNDRGFNCQLQR (not fully specified (bridges); cysteine pairing not given here, Insert only; said to be a cyclic peptide (two cysteines)) [CRP-1]",Kd,human C-reactive protein [2],1 nM
same,Kd,human C-reactive protein [8],1.2 nM
LMNWRGFMVPRESPK (Insert only) [CRP-7],binding result,human C-reactive protein [6],binds
ICCHPQWCGLTVWWPCK [SEQ ID NO 275],binding result,streptavidin [5],binds
WTKLKNSRGFELQLD (Insert only) [CRP-8],binding result,human C-reactive protein [6],binds
NNYSAWLRCLLRAYS (Insert only) [HSA-4],binding result,human serum albumin,binds
LMNWRGFMVPRESPK [SEQ ID NO 251],binding result,human C-reactive protein [1],binds
TRLICANLCWYAE [SEQ ID NO 284],binding result,streptavidin [3],binds
TTCKYYLSCRWRKDL (Insert only) [CRP-13],binding result,human C-reactive protein [6],binds
CMIICQNVCYRKC [SEQ ID NO 277],binding result,streptavidin [3],binds
RYIMNHRGFYIFVPR [SEQ ID NO 250],binding result,human C-reactive protein [1],binds
KALVCQNVCYTMS [SEQ ID NO 278],binding result,streptavidin [3],binds
YPPRFQYYRFYYRGP (Insert only) [CRP-10],Kd,human C-reactive protein [2],5 nM
RYIMNHRGFYIFVPR (Insert only) [CRP-4],binding result,human C-reactive protein [6],binds
TFMPSYYRSWGPPPT [SEQ ID NO 249],binding result,human C-reactive protein [1],binds
PYLNARGFSVTREQI (Insert only) [CRP-9],binding result,human C-reactive protein [6],binds
PYLNARGFSVTREQI [SEQ ID NO 252],binding result,human C-reactive protein [1],binds
TFMPSYYRSWGPPPT (Insert only) [CRP-12],binding result,human C-reactive protein [6],binds
ICCHPQVCSGLNRFRCG [SEQ ID NO 270],binding result,streptavidin [5],binds
RLEICQNVCYYLGTL (Insert only; also called SA-1 pep) [SA-1],koff,streptavidin [4],~0.001 s⁻¹
same,Kd,streptavidin [7],10 nM
IMMECFYVCTIANTQ (Insert only) [SA-8],koff,streptavidin [4],~0.01 s⁻¹
ADTICWYVCTISVHA (Insert only) [SA-11],koff,streptavidin [4],~0.01 s⁻¹
SYISTWLNFLFCGQS (Insert only) [HSA-3],binding result,human serum albumin,binds
YCCHPQVCFLGHRAACP [SEQ ID NO 267],binding result,streptavidin [5],binds
VRTWNDRGFQQSVDR (Insert only) [CRP-5],binding result,human C-reactive protein [6],binds
GTLVCMNFCYLSK [SEQ ID NO 280],binding result,streptavidin [3],binds
HMRWNTRGFLYPAMS (Insert only) [CRP-3],binding result,human C-reactive protein [6],binds
WCCHPQVCSLSLAYKCQ [SEQ ID NO 268],binding result,streptavidin [5],binds
